Source: article PMC12800186, “Intelectin-2 is a broad-spectrum antimicrobial lectin” (Nature Communications, 2026)
“And” between values parts separate entries of the source, which are not always exact repeats. Equal entries are not always repeated.

Legend:
[1] = biological target: the molecule itself; assay: cross-linking; 1 mg/mL mItln2 in HEPES/EDTA buffer with BS3 (0.1-5 mM), RT, 30 min; SDS-PAGE with DTT
[2] = biological target: the molecule itself; assay: not stated; recombinant StrepII-hItln2; covalent trimers and higher-order oligomers (Supplementary Fig. 8E, F)

| Protein | stoichiometry N [1] | stoichiometry N [2] |
| --- | --- | --- |
| StrepII-tagged mouse intelectin-2 (natural protein, UniProt Q80ZA0 20-313, looked up, glycosylated (N-glycosylation examined with PNGase F), Mouse intelectin-2 (mItln2), GenBank AAO60215, UniProt Q80ZA0; amplified from the start to the stop codon and secreted from HEK293 cells; mass and extinction coefficient were calculated without the signal peptide; Non-covalent oligomers of variable size; also called mItln2; strep-mItln2; source: suspension-adapted HEK293 cells, transient transfection, purified from the expression medium …) AEENLDTNRWGNSFFSSLPRSCKEIKQEDTKAQDGLYFLRTENGVIYQTFCDMTTAGGGWTLVASVHENNLRGRCTVGDRWSSQQGNRADYPEGDGNWANYNTFGSAEGATSDDYKNPGYFDIQAENLGIWHVPNNSPLHTWRNSSLLRYRTFTGFLQRLGHNLFGLYQKYPVKYGEGKCWTDNGPAFPVVYDFGDAQKTASYYSPSGRNEFTAGYVQFRVFNNERAASALCAGVRVTGCNTEHHCIGGGGFFPEFDPEECGDFAAFDANGYGTHIRYSNSREITEAAVLLFYR | 2 and 3 and 6 |  |
| StrepII-tagged human intelectin-2 (A177S, C311G) (natural protein, UniProt Q8WWU7 27-325, looked up, Human intelectin-2 (hItln2, ITLN2), cDNA AY358905; secreted from HEK293 cells; mass and extinction coefficient were calculated without the signal peptide; A177S introduces a glycosylation site, C311G removes an unpaired cysteine; For low pH and low salt experiments the protein was exchanged into PIPES buffer, pH 5.5; also called hItln2; StrepII-hItln2; source: suspension-adapted HEK293 cells, …) AAASSLEMLSREFETCAFSFSSLPRSCKEIKERCHSAGDGLYFLRTKNGVVYQTFCDMTSGGGGWTLVASVHENDMRGKCTVGDRWSSQQGNKADYPEGDGNWANYNTFGSAEAATSDDYKNPGYYDIQAKDLGIWHVPNKSPMQHWRNSSLLRYRTNTGFLQRLGHNLFGIYQKYPVKYRSGKCWNDNGPAIPVVYDFGDAKKTASYYSPYGQREFVAGFVQFRVFNNERAANALCAGIKVTGCNTEHHCIGGGGFFPQGKPRQCGDFSAFDWDGYGTHVKSSGSREITEAAVLLFYR |  | ≥ 3 |
